Data taken from article PMC12781114, “Mechanistic and Molecular Dynamics Studies Reveal that Increased Loop 3 Mobility Alters Substrate Capture in an NADH:Quinone Oxidoreductase” (Biochemistry, 2025).

Key:
[1] = test system: COC1=C(OC)C(=O)C(C)=CC1=O; test: purified protein; assay type: biochemical, Pseudomonas aeruginosa; conditions: pH 6.0, 25.0 °C
[2] = target: T1, NADH:quinone oxidoreductase (NQO-P78G) (Pseudomonas aeruginosa, UniProt Q9I4V0, P78G); test: anaerobic stopped-flow reductive half-reaction (flavin reduction at […] nm), hyperbolic fit; steady-state kinetics; assay type: biochemical
T1 construct: gene PA1024
T1 sequence (Q9I4V0 whole entry P78G): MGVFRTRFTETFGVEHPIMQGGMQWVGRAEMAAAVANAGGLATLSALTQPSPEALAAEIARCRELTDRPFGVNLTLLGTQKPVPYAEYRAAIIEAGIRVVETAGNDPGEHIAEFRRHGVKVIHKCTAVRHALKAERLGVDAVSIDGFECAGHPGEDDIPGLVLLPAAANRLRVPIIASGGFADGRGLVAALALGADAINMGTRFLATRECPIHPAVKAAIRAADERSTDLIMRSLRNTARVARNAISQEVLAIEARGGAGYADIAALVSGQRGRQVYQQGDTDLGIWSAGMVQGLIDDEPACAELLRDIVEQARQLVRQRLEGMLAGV

**Q.** How did the Km [1] turn out when “NADH:quinone oxidoreductase (NQO-WT) (Pseudomonas aeruginosa PAO1)” was run?
**A.** 35 ± 6 µM

**Q.** How did the Kd [2] turn out when `NC(=O)C1=CN([C@@H]2O[C@H](COP(=O)(O)OP(=O)(O)OC[C@H]3O[C@@H](n4cnc5c(N)ncnc54)[C@H](O)[C@@H]3O)[C@@H](O)[C@H]2O)C=CC1` [NADH] was run?
**A.** 450 ± 40 µM

**Q.** With “NADH:quinone oxidoreductase (NQO-P78G) (Pseudomonas aeruginosa PAO1; P78G)” as the molecule, how does the Km ([1]; FMN active site pocket, binds the reduced enzyme (ping-pong bi-bi)) read?
**A.** 10 ± 1 µM
